# Literature values as cited in patent US10905736B2, “Ezetimibe-associated ApoA-I mimetic peptides showing enhanced synergism” (The Regents of the University of California, priority 2016, dated 2021).
# Conditions: two hours after LDLR-/- mice finished eating WD containing Tg6F; cited from earlier work
sequence,measurement,value
DWLKAFYDKFFEKFKEFF [6F peptide],presence of intact peptide in small intestine and plasma,found in the small intestine but not in the plasma
